# B1: Kif14(768)-eGFP (domain or fragment, human, UniProt Q15058 1-768, looked up)
# chain: MSLHSTHNRNNSGDILDIPSSQNSSSLNALTHSSRLKLHLKSDMSECENDDPLLRSAGKVRDINRTYVISASRKTADMPLTPNPVGRLALQRRTTRNKESSLLVSELEDTTEKTAETRLTLQRRAKTDSAEKWKTAEIDSVKMTLNVGGETENNGVSKESRTNVRIVNNAKNSFVASSVPLDEDPQVIEMMADKKYKETFSAPSRANENVALKYSSNRPPIASLSQTEVVRSGHLTTKPTQSKLDIKVLGTGNLYHRSIGKEIAKTSNKFGSLEKRTPTKCTTEHKLTTKCSLPQLKSPAPSILKNRMSNLQVKQRPKSSFLANKQERSAENTILPEEETVVQNTSAGKDPLKVENSQVTVAVRVRPFTKREKIEKASQVVFMSGKEITVEHPDTKQVYNFIYDVSFWSFDECHPHYASQTTVYEKLAAPLLERAFEGFNTCLFAYGQTGSGKSYTMMGFSEEPGIIPRFCEDLFSQVARKQTQEVSYHIEMSFFEVYNEKIHDLLVCKDENGQRKQPLRVREHPVYGPYVEALSMNIVSSYADIQSWLELGNKQRATAATGMNDKSSRSHSVFTLVMTQTKTEFVEGEEHDHRITSRINLIDLAGSERCSTAHTNGDRLKEGVSINKSLLTLGKVISALSEQANQRSVFIPYRESVLTWLLKESLGGNSKTAMIATISPAASNIEETLSTLRYANQARLIVNIAKVNEDMNAKLIRELKAEIAKLKAAQRNSRNIDPERYRLCRQEITSLRMKLHQQERDMAEMQRV
# B2: Kif5b-GFP (domain or fragment, human, UniProt P33176 1-905, looked up)
# chain: MADLAECNIKVMCRFRPLNESEVNRGDKYIAKFQGEDTVVIASKPYAFDRVFQSSTSQEQVYNDCAKKIVKDVLEGYNGTIFAYGQTSSGKTHTMEGKLHDPEGMGIIPRIVQDIFNYIYSMDENLEFHIKVSYFEIYLDKIRDLLDVSKTNLSVHEDKNRVPYVKGCTERFVCSPDEVMDTIDEGKSNRHVAVTNMNEHSSRSHSIFLINVKQENTQTEQKLSGKLYLVDLAGSEKVSKTGAEGAVLDEAKNINKSLSALGNVISALAEGSTYVPYRDSKMTRILQDSLGGNCRTTIVICCSPSSYNESETKSTLLFGQRAKTIKNTVCVNVELTAEQWKKKYEKEKEKNKILRNTIQWLENELNRWRNGETVPIDEQFDKEKANLEAFTVDKDITLTNDKPATAIGVIGNFTDAERRKCEEEIAKLYKQLDDKDEEINQQSQLVEKLKTQMLDQEELLASTRRDQDNMQAELNRLQAENDASKEEVKEVLQALEELAVNYDQKSQEVEDKTKEYELLSDELNQKSATLASIDAELQKLKEMTNHQKKRAAEMMASLLKDLAEIGIAVGNNDVKQPEGTGMIDEEFTVARLYISKMKSEVKTMVKRCKQLESTQTESNKKMEENEKELAACQLRISQHEAKIKSLTEYLQNVEQKKRQLEESVDALSEELVQLRAQEKVHEMEKEHLNKVQTANEVKQAVEQQIQSHRETHQKQISSLRDEVEAKAKLITDLQDQNQKMMLEQERLRVEHEKLKATDQEKSRKLHELTVMQDRREQARQDLKGLEETVAKELQTLHNLRKLFVQDLATRVKKSAEIDSDDTGGSAAQKQKISFLENNLEQLTKVHKQLVRDNADLRCELPKLEKRLRATAERVKALESALKEAKENASRDRKRYQQEVDRIKEA
# Target: the molecule itself
# Assay: single-molecule GFP fluorescence intensity
protein,measurement,value
B1,stoichiometry N,2
B2,stoichiometry N,2

# From publication doi:10.1101/2020.01.30.926501 (bioRxiv, 2020)
